# Patent publication US20210070868A1
# pKd: −log10 of the molar value.
# Target: w.t. (UniProt P08581)
# Test: ELISA
substance,measurement,value
DN30,pKd,9.35
